# Patent publication US20090163411A1 (BOLDER BIOTECHNOLOGY, published 2009)
# B1: sFlt-1(3) N164C (receptor)
# chain: SKLKDPELSLKGTQHIMQAGQTLHLQCRGEAAHKWSLPEMVSKESERLSITKSACGRNGKQFCSTLTLNTAQANHTGFYSCKYLAVPTSKKKETESAIYIFISDTGRPFVEMYSEIPEIIHMTEGRELVIPCRVTSPCITVTLKKFPLDTLIPDGKRIIWDSRKGFIISNATYKEIGLLTCEATVNGHLYKTNYLTHRQTNTIIDVQISTPRPVKLLRGHTLVLNCTATTPLNTRVQMTWSYPDEKNKRASVRRRIDQSNSHANIFYSVLTIDKMQNKDKGLYTCRVRSGPSFKSVNTSVHIYDKAFITVKH
# Biological target: Recombinant Human Vascular Endothelial Growth Factor (rhVEGF) (human, UniProt P15692-4 27-191, limits assumed)
# Test: cell-based or functional assay
# Recombinant Human Vascular Endothelial Growth Factor (rhVEGF), sequence (P15692 other isoform, or with tags, fused parts or gaps limits assumed): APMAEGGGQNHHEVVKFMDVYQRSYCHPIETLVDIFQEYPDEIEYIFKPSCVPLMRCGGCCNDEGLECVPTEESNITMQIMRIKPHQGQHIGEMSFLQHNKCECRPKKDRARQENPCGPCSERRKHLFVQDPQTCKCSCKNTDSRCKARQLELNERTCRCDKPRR
binder,measurement,value
B1,"Ave Ec50's (ng/ml); inhibition of VEGF-stimulated HUVEC proliferation, BrdU Cell Proliferation assay",103 ng/mL
